Results: the nanobody polyreactivity screen of Harvey et al. (2022)

Assay: yeast display, Sf9 membrane polyspecificity reagent, FACS + sequencing; frameworks hold sequencing errors
In short: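 Synthetic nanobody libraries on Saccharomyces cerevisiae BJ5465 were galactose-induced for 36–48 hours, stained 1 hour at 4 °C with 10% biotinylated, detergent-solubilized Sf9 membrane reagent and enriched on streptavidin microbeads. FACS then separated cells into low and high (top ~1%) gates by anti-HA (expression) and streptavidin (reagent binding) fluorescence. Genes were colony-PCR amplified, MiSeq 2 × 250 sequenced and CDR-length filtered. A clone's polyreactivity label is that of its gate of origin.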

Sequence	polyreactivity (PSR sort gate)
QVQLVESGGGLVQAGGSLRLSCAASGRIFYGYTMGWYRQAPGKERELVAAITQRGGNTHYADSVKGRFTISRDNAKNTVYLQMNSLKPEDTAVYYCAAKYYPYVRRVQYYYWGQGTQVTVSS	high polyreactivity
QVQLVESGGGLVQAGGSLRLSCAPSGFTIGYYAMGWYRQAPGKEMELVAGISFSGTSTYYADSVKGRFTFSRDNAKNTVYLLMNSLKPEDTAVYYCNKVYYSAASKHKEYWGQGTQVTVSS	high polyreactivity
QVQLVESGGGLVQAGGSLRLSCADSGRTFSPYAMGWYRQAPGKDRELVAAITSGGRTNFADSVKGRFTISRDNAKNTVYLQMNSLKPEDTAVYYCAARSGRYRWTRFDYWGQGTQVTVSS	low polyreactivity
QVQLVESGGGLVQAGGSLRLSCAASGRIFAYYTMGWYRQAPGKERELVAAITNGGRTSYADSVKGRFTISRDNAKNTVYLQMNSLKPEDTAVYYCNAQQYRWPRVYYNYNYWGQGTQVTVSS	high polyreactivity
QVQLVESGGGLVQAGGSLRLSCAASGFTLYSYAMGWYRQAPGKERELVAAISWSGTRTYYADTVKGRFTISRDNAKNTVYLQMNSLKPEDTAVYYCAARGYRYGYGYWGQCTQVTVSS	high polyreactivity
QVQLVESGGGLVQAGGSLRLSCAASGRTFYRYAMGWYRQAPGKERELVARIRSGGSTNYADSVKGRFTISRDNAKNTVYLQMNSLKPEDTAVYYCAARPGAAGYKYYYWGQGTQVTVSS	high polyreactivity
QVQLVESGGGLVQAGGSLRLSCAASGSIFAVYAMGRYRPAPGKERELVAASSTDYADSVKGRVTISRDNAKNTVYLQMNSLKPEDTAVYYCAKVGFGIPGGFYYWGHGTQVTVSS	low polyreactivity
QVQLVESGGGLVQAGGSLRLSCAASGFTFRRYAMGWYRQAPGKERELVAAISNGGSTYYADSVKGRFTISRDNAKNTVYLQMNSLKPEDTAVYYCAADIYSYFWWPYYYWGQGTQVTVSS	high polyreactivity
QVQLVESGGGLVQAGGSLRLSCAASGRTFYGYAMGWYRQAPGKERELVAAISFSGGRTYYADSVKGRFTISRDNAKNTVYLQMNSLKPEDTAVYYCNRGLYPFDWVQGTQVTVSS	high polyreactivity
QVQLVESVGGLVQAGGSLRLSCAASGSMFKVYAMGWYRQAPGKEREFVAAITSSDSNTNYADSVKGRFTISRDNAKNTVYLQMNSLKPEDTAVYYCNKDGGGDSYWYDYWGQGTQVTVSS	low polyreactivity
QGQLVESGGGIVQAGVSLRLSCAASGSIFTANAMGWYRQAPGKVRELVAAISRSGGRTYYADSVKGRFTISRDNAKNTVYLQMNSLNPEDTAVYYCNVGSFNTSGYDYWGQGTQVTVSS	high polyreactivity
QVQLVESGGGLVQAGGSLRLSCAASGRTFSTYAMGGYRQAPGKERELVAVIRRDGSTSYADSVKGRFTISRDNAKNTVYLQMNSLKPEDTAVYYCAVTRRGEYYWGQGTQVTVSS	high polyreactivity
QVQLVESGGGLVQAGGSLRLSCAASGSTFYYNAMGWYRQAPGKERELVAVITLNGGRTSYADSVKGRFTISRDNAKNTVYLQMNSLKPEDTAVYYCAADRYRGYGYWGQGTQVTVSS	low polyreactivity
QVQLVESGGGLVQAGGSLRLSCAASGSTFGHYAMGWYRQAPGKERELVAAISWSGGSTSYADSVKGRFTISRDNAKNTVYLQMNSLKPEDTAVYYCNKRQEWFHFPYTRVYYWGQGTQLTVSS	low polyreactivity
QVQLVESGGGLVQAGGSLRLSCAASGRIFSWYAMGWYRQAPGKERELVADITNGGSTYYADSVKGRFTISRDNAKNTVYLQMNSLKPEDTAVYYCAAAYIHRLGRVLPSVYSIGRDYWGQGTQVTVSS	low polyreactivity
QVQLLESGGGLVQVGGSLRLSCAASGTIFIYGFLGWNRQAPGKERELVASINLGGITNYADSEKGRFTISRDNAINTGFLQMISLKPEDTAVYYCAAYVVTCQNYGYWGHGTQVTVSS	low polyreactivity

Sequence	polyreactivity (PSR sort gate)
QVQLVDSGRGLVQAGGSLRLSCAASGSTFRWNAMGWYRQAPGKERELVAAIDNSGTSTYYADSVKGRFTISRDNAKNTVYLQMNSLKPDDTAVYYCNVRISNTAYRYPTFDYWGQGTQVTVSS	low polyreactivity
QVQLVESGGGLVQAGGSLRLTCAASGFIFDTYAMGWYRQAPGKERELVAAISWTGTDTYYADSVKGRFTISRDNAKNTVYLQMNSLKPEDTAVYYCAARSRYKYSPSGDYWGQGTQVTVSS	high polyreactivity
QVQLVESGGGLVQAGGSLSLSCAASGRTLYLYTMGWYRQAPGKERELVASINWRGSTYYADSVKGRFTISRDNAKNTVYLQMNSLKPEDTAVYYCNVGGPSGGMYYWGQGTQVTVSS	low polyreactivity
HVQLVESGGGLVQAGGSLRLSCAASGSIFGHYAMGWYRQATGKERELVAAISSGGSTNYADSVKGRFTISRDNAKNTVYLQMNSLIPEDTAVYYCAPTSWWPPGYDYWGQGTQVTVSS	high polyreactivity
QVQLVESGGGLVQAGGSLRLSCAASGLIFIFNTMGWYRQAPGKERELVAAISWSGTSTYYADSVKGRFTISRDNANMTVYLLMNSLKPVDTAVYFCNDDLYWFRGFDYWGQGTQVTVSS	high polyreactivity
QDQLVESGGGLVQAGGSLRLRCAASGFIFRYYAMGWYRQAPGKERELVAAIDYSGGSTNYADSVKRRFTISRDNAKNTVYLQMNSLKPEDTAVYYCNAEYTWHRGYDYWGQGTQVTVSS	low polyreactivity
QVHLVESGGGLVQAGGSLRLSCAASGSTFRSYVMGWSRQAPGKERELVAAISRGGTTYYADSVKGRFTISRDNAKNTVYLQMNSLKPEDTPVYYCAATRTTRFYTGSKMNYWGQGTQVTVSS	high polyreactivity
QVQLLESCGGLVQAGGSLRLSCAASGSILTQYAMGWYRQAPGKERELVAAITGRGGSTYYADSVKGRFTISRDIAMYTVYLEMNSLKPEDTAVFYCAAEERYAYRYDYWGQGTQVTVSS	high polyreactivity
QVQLVESGGGLVQAGGSLRLSCAASGITFVGNAMGWYRQAPGKERELVAVISRGDSTNYADSVKGRFTISRDNAKNTVYLQMNSLKPEDTAVYYCAADGSRAGQEGNDYCGQGTQVTVSS	low polyreactivity
QVQLVESGGGLVQAGGSLRLSCAASGRIYRYYAMGWYRQAPGKERELVAAITRSGGTTYYADSVKGRFTISRDNAKYTVYLQMNSLKPEDTAVYYCNAGVGQKYDYWGQVTQVTVSS	high polyreactivity
QVQLVESGGGLVQAGGSLRLSCAASGGIFGYYVMGWYRQAPGKERELVAVITRGGSTNYADSVKGRFTISRDNAKNTVYLQMNSLKPEDTAVYYFAKDVPYRRVRSEYWGQGTQVTVSS	low polyreactivity
QVQLVESGGGLVQAGGSLRLSCAASGSIFRWNAMGWYRQAPGKERELVAGIRWDSGSTYYADSVKGRFTISRDNAKNTVYLQMNSLKPEDTAVYYCAADLFDFLLIDGFAVVTYGYWGQGTQVNVSS	low polyreactivity
QVQLVESGGGLVQAGGSLRLSCAASGSIAMGWYRQAPGKERELVATISSSGGSTYYADSVKGRFTISRDNAKNTVYLQMNSLKPEDTAVYYCNTQAVYGGGEGGYDYWGQGTQLTVSS	low polyreactivity
QVQLVESGGGLVQAGGSLRLSCAASGITFFNYAMGWYRQAPGKERELVAAISGGSTYYADSVKGRFTISRDNAKNTVYLQMNSLKPEDTAVYYCAARVASKYLVYRKRPSRFDYWGQGTQVTVSS	low polyreactivity
QVQLVESGGGLVQAGGSLRLSCAASGLTFGRNVMGWYRQAPGKERELVAAISWRGDSTYYADSVKGRFTISRDNAKNTGYLQMNSLKPEDTAVYYCAVRYYRGSVASGSDYWGQGTQVTVSS	high polyreactivity
QVQLVESGGGLVQAGGSLSLSCAASGFIFTPYTMGWYREAPGKERELVAAITDGSSTNYADSVKGRFTISRDNAKNTVYLQMNSLKPEDTAVYYCAKDWPSAVYGSWAGRYDYWGQGSQVTVSS	low polyreactivity
